# US20250353888A1
# Experiments:
# [1] = target: FGF receptor 2b (FGFR2b) naturally expressed on 4MBr-5 rhesus monkey bronchial epithelial cells (rhesus monkey); assay: cell-based or functional assay
# [2] = target: FGFR2 receptor endogenously expressed on mammary adenocarcinoma MCF7 cells (UniProt P21802); assay: cell-based or functional assay
# FGFR2 receptor endogenously expressed on mammary adenocarcinoma MCF7 cells, sequence (P21802 22-821): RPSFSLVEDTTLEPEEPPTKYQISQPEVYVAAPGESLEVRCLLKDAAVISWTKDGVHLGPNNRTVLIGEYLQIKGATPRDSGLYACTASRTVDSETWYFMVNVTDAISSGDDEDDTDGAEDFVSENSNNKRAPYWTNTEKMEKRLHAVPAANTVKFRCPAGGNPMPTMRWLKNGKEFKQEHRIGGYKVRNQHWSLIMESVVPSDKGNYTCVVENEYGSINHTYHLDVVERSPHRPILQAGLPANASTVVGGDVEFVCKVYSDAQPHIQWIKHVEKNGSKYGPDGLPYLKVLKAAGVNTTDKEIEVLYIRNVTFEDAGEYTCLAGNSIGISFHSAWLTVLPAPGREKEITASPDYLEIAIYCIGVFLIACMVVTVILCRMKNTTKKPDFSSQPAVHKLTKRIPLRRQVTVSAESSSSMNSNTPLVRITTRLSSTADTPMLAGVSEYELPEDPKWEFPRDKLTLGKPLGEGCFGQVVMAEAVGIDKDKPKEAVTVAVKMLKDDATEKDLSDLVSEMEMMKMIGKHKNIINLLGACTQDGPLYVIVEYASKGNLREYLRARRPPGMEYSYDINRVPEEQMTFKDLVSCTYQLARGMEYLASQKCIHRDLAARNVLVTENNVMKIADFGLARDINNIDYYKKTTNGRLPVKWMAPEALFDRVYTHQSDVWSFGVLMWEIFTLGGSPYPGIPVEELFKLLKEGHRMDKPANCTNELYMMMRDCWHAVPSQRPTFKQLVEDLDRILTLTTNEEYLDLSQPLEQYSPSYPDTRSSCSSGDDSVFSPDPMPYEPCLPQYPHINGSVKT
"ED50, proliferation of 4MBr-5 cells (resazurin) [1] [ng/mL]","ED50, proliferation of lung epithelial 4MBr-5 cells (resazurin) [1] [ng/mL]","pKrox24 (MapERK)-DsRed reporter induction in MCF7 cells, 100 ng/mL, 24 hr (times, against FGF10-wt) [2]",ED50 (ng/mL) determined using 4MBr-5 cells; no preincubation (control) [1] [ng/mL],ED50 (ng/mL) determined using 4MBr-5 cells; protein preincubated at 37° C. for 1 day [1] [ng/mL],ED50 (ng/mL) determined using 4MBr-5 cells; protein preincubated at 37° C. for 3 days [1] [ng/mL],ED50 (ng/mL) determined using 4MBr-5 cells; protein preincubated at 37° C. for 7 days [1] [ng/mL],Substance
12.7,–,–,–,–,–,–,FGF10 from Falco peregrinus (FGF10-Fp) (ligand)
–,1.4,–,–,–,–,–,FGF10 single-point mutant L152F (ligand)
1.9,–,–,–,–,–,–,FGF10^69-208+L152F (ligand)
6.1,–,–,–,–,–,–,FGF10-Fp+L152F (single point variant of FGF10-Fp) (ligand)
0.21,–,2.5,0.37,1,0.26,11.1,FGF10-STAB (4-point mutant of FGF10: V123I+L152F+Q175E+N181D) (ligand)
–,0.8,–,0.95,12.5,21.1,34.8,"FGF10-wt (recombinant mature human FGF10, Leu40-Ser208, with N-terminal His-tag and thrombin cleavage site) (ligand)"
